# According to patent US20260116920A1 (PEPTIDREAM, published 2026):
# Starred links: 1 amine or outer side, 2 acyl side, 3 side chain; linkers in the order of their positions; H or OH if unused. Positions of bridges follow the written chain, without caps; N, C: chain ends. Non-standard residues stand in square brackets, D forms with d. Primed or numbered codes have the meaning given here. No end group written: not given here. E(PEG8Me) = (S)-30-amino-27-oxo-2,5,8,11,14,17,20,23-octaoxa-26-azahentriacontane-31-oic acid, COCCOCCOCCOCCOCCOCCOCCOCCNC(=O)CC[C@H](N[*:1])C(=O)[*:2]; E(PEG4Me) = (S)-18-amino-15-oxo-2,5,8,11-tetraoxa-14-azanonadecane-19-oic acid, COCCOCCOCCOCCNC(=O)CC[C@H](N[*:1])C(=O)[*:2]; Phe(4-OMe)(3) = (S)-2-amino-3-(4-methoxyphenyl)propanoic acid (source code F4OMe), COc1ccc(C[C@H](N[*:1])C(=O)[*:2])cc1; F4aao = (S)-2-amino-3-(4-(carboxymethoxy)phenyl)propanoic acid, O=C([C@H](Cc1ccc(OCC(=O)[*:3])cc1)N[*:1])[*:2]; Phe(4-OMe)″ = (S)-2-amino-3-(4-methoxyphenyl)propanoic acid (F4OMe), COc1ccc(C[C@H](N[*:1])C(=O)[*:2])cc1; Phe(4-OMe) = F4OMe = (S)-2-amino-3-(4-methoxyphenyl)propanoic acid, COc1ccc(C[C@H](N[*:1])C(=O)[*:2])cc1; E(NHdPEG1Me) = N5-(1,3-dimethoxypropan-2-yl)-L-glutamine, COCC(COC)NC(=O)CC[C@H](N[*:1])C(=O)[*:2]; Trp(1-CH2CO) = O=C([C@H](Cc1cn(CC(=O)[*:3])c2ccccc12)N[*:1])[*:2]; Ala(1-CH2CO2H-4-piperidyl) = N[C@@H](CC1CCN(CC(=O)O)CC1)C(=O)O; Trp(5-Cl) = N[C@@H](Cc1c[nH]c2ccc(Cl)cc12)C(=O)O; Nle(6-morpholino) = N[C@@H](CCCCN1CCOCC1)C(=O)O; Phe(3-COOH) = N[C@@H](Cc1cccc(C(=O)O)c1)C(=O)O; NMePhe(3-Cl) = CN[C@@H](Cc1cccc(Cl)c1)C(=O)O; NMePhe(4-F) = CN[C@@H](Cc1ccc(F)cc1)C(=O)O; PEG8 = NCCOCCOCCOCCOCCOCCOCCOCCOCCC(=O)O; Lys(N3) = [N-]=[N+]=NCCCC[C@H](N)C(=O)O; NMeY = CN[C@@H](Cc1ccc(O)cc1)C(=O)O; NMeR = CN[C@@H](CCCNC(=N)N)C(=O)O; NMeF = CN[C@@H](Cc1ccccc1)C(=O)O; 3Pal = N[C@@H](Cc1cccnc1)C(=O)O; 4Pal = N[C@@H](Cc1ccncc1)C(=O)O
# Tests used:
# [1] = biological target: T1, human transferrin receptor (hTfR) (human, UniProt P02786 89-760); assay: SPR; A = KD <1 nM
# T1 construct: used as 0.5 uM hTfR dimer solution, immobilised on an NTA sensor chip (Ni capture plus EDC/NHS coupling); also called human TfR; TfR1
# T1 sequence (P02786 89-760 limits assumed): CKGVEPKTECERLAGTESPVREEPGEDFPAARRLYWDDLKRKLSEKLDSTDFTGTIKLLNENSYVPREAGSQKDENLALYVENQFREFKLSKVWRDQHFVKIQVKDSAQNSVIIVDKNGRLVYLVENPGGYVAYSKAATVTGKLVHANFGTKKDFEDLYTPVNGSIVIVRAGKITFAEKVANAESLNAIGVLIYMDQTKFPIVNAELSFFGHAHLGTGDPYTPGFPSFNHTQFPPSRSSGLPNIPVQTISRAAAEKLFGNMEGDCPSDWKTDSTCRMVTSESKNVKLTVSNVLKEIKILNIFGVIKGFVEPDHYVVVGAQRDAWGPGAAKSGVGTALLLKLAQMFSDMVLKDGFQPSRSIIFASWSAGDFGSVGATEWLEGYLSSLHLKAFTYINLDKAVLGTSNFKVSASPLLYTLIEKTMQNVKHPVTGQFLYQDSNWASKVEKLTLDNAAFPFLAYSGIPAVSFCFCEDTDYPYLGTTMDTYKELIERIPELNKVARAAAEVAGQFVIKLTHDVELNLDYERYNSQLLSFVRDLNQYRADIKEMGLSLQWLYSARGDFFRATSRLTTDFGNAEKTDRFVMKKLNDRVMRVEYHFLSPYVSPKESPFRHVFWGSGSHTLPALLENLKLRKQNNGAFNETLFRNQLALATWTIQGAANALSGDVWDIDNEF
# Protocol: NTA sensor chip (Global Life Sciences Technologies Japan K.K.) was inserted into BiacoreT200 (Global Life Sciences Technologies Japan K.K.), then the priming operation was performed three times by using running buffer containing: 10 mM HEPES pH 8.0 (Nacalai Tesque, Inc.), 150 mM NaCl (Nacalai Tesque, Inc.), 0.05% Tween 20 (Nacalai Tesque, Inc.), 0.1% BSA (SIGMA-ALDRICH) and 1.0% DMSO (FUJIFILM Wako Pure Chemical Corporation), and equilibrated at a flow rate of 30 μL/min. 350 mM EDTA solution was reacted at a flow rate of 10 μL/min for 60 seconds, 0.5 mM […] solution (Kishida Chemical Co., Ltd.) was reacted at a flow rate of 10 μL/min for 60 seconds, and then the NTA sensor chip was washed with 3 mM EDTA solution (Nacalai Tesque, Inc.) at a flow rate of 10 μL/min for 60 seconds. After mixing 50 μL each of 60 mM EDC solution (Global Life Science Technologies Japan K.K.) and 650 mM NHS solution (Global Life Science Technologies Japan K.K.), the reaction was carried out at a flow rate of 10 μL/min for 420 seconds. 150 μL of 0.5 μM hTfR dimer solution was prepared by dilution with running buffer and reacted at a flow rate of 10 μL/min for 300 seconds to immobilize hTfR on the NTA sensor chip. For the human transferrin receptor (hTfR), recombinant hTfR described in Example 2 of WO2018/124121 was used. After immobilization, capping was performed by reacting with 1.0 M ethanolamine solution (Global Life Sciences Technologies Japan K.K.) at a flow rate of 10 μL/min for 420 seconds. Peptide lysate prepared in DMSO solution to 10 mM was diluted with running buffer to be a final concentration of 10 μM peptide lysate, then peptide solutions of 100 nM, 50 nM, 25 nM, 10 nM, and 5 nM were prepared. Using the above samples, the kinetics of the peptide against hTfR was obtained by SPR measurement.
# The kinetic evaluation model was single-cycle kinetics, and curve fitting was performed using Biacore T200 Evaluation Software Version 3.0 (Global Life Science Technologies Japan K.K.). The binding of the peptide to hTfR was evaluated by performing curve fitting on the obtained sensorgram by least squares method and obtaining the KD value.
# [2] = biological target: T1, human transferrin receptor (hTfR); assay: SPR; B = KD 1-100 nM
# How it was run: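 Recombinant hTfR dimer immobilised on Ni-NTA chip with EDC/NHS coupling; running buffer 10 mM HEPES pH 8.0, 150 mM NaCl, 0.05% Tween 20, 0.1% BSA, 1.0% DMSO. Peptides injected at 5–100 nM in single-cycle kinetics; KD from least-squares sensorgram fitting.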
KD [1],Binder,further results
< 1 nM,{CH2CO}-AV[NMePhe(3-Cl)]VWNY[Phe(4-OMe)]IIRRFYC-NH2 (thioether N-15; not fully specified (residue 14); also: linker PEG4c) [894_0280],
< 1 nM,"{CH2CO}-AV[NMeF]V[Trp(5-Cl)]NY[Phe(4-OMe)]IIRRFYC-NH2 (thioether N-15; not fully specified (residue 14); also: linker PEG4c, place not given here) [894_0251]",
< 1 nM,"{CH2CO}-AV[NMePhe(3-Cl)]V[Trp(1-CH2CO)]NY[Phe(4-OMe)″]IIRRF[NMeY]C-NH2 (thioether N-15; also: linker PEG4c, place not given here) [894_0391]",
,"Ac-AV[NMePhe(3-Cl)]V[Trp(1-CH2CO)]NY[F4aao]IIRR[Phe(3-COOH)][NMeY]C (thioether (positions not given here); not fully specified (C-terminus, bridges)) [894_0342]",KD [2]: 1 to 100 nM
< 1 nM,"{CH2CO}-AV[NMePhe(3-Cl)]V[Trp(1-CH2CO)]NY[F4aao]IIRRF[NMeY]C-NH2 (thioether N-15; also: linker G-de-de-de-ds-ds-KN3, attachment not given here) [894_3168]",
< 1 nM,"{CH2CO}-AV[NMePhe(3-Cl)]VWNY[F4aao]IIRRF[NMeY]C-NH2 (thioether N-15; also: linker PEG4c, place not given here) [894_0392]",
< 1 nM,"{CH2CO}-AV[NMePhe(3-Cl)]VWNY[F4aao]II[E(PEG8Me)]RF[NMeY]C-NH2 (thioether N-15; also: linker PEG4c, place not given here) [849_0397]",
,"AVFVWNYYIIKRYYC (3:MeF,5:MeW,14:MeY; linker G-ds-ds-ds-ds-ds-KN3; ClAc-1/C15 thioether ring; C-term NH2) [894_3200]",binding result [1]: binds
< 1 nM,"{CH2CO}-AV[NMePhe(3-Cl)]V[Trp(1-CH2CO)]NY[Phe(4-OMe)(3)]IERRF[NMeY]C-NH2 (thioether N-15; also: linker G-de-de-de-ds-ds-KN3, attachment not given here) [894_3167]",
< 1 nM,{CH2CO}-AV[NMePhe(3-Cl)]VWNY[Phe(4-OMe)]IIKRFYC-NH2 (thioether N-15; not fully specified (residue 14); also: linker PEG4c) [894_0281],
< 1 nM,{CH2CO}-AV[NMePhe(3-Cl)]VWNY[Phe(4-OMe)]IIRRYYC-NH2 (thioether N-15; not fully specified (residue 14); also: linker PEG4c) [894_0291],
,"{CH2CO}-AV[NMePhe(3-Cl)]V[Trp(1-CH2CO)]NY[F4aao]II[Ala(1-CH2CO2H-4-piperidyl)]RF[NMeY]C-NH2 (thioether N-15; also: linker PEG4c, place not given here) [894_0386]",binding result [1]: binds
< 1 nM,"{CH2CO}-AV[NMePhe(4-F)]V[Trp(5-Cl)]NYYIIRRFYC-NH2 (thioether N-15; not fully specified (residue 14); also: linker PEG4c, place not given here) [894_0254]",
< 1 nM,"{CH2CO}-AV[NMePhe(3-Cl)]VWNY[F4aao]II[E(NHdPEG1Me)]R[Phe(3-COOH)][NMeY]C-NH2 (thioether N-15; also: linker PEG4c, place not given here) [849_0399]",
< 1 nM,"{CH2CO}-AV[NMePhe(3-Cl)]V[Trp(1-CH2CO)]NY[F4aao]II[E(PEG4Me)][Nle(6-morpholino)]F[NMeY]C-NH2 (thioether N-15; also: linker PEG4c, attachment site not given here) [849_0404]",
,"{CH2CO}-AV[NMePhe(3-Cl)]V[Trp(1-CH2CO)]NY[F4aao]II[Nle(6-morpholino)][Nle(6-morpholino)]F[NMeY]C-NH2 (thioether N-15; also: linker PEG4c, place not given here) [894_0390]",binding result [1]: binds
< 1 nM,{CH2CO}-AV[NMePhe(3-Cl)]VWNY[Phe(4-OMe)″]IIRR[4Pal][NMeY]C-NH2 (thioether N-15; also: linker PEG4c) [894_0317],
< 1 nM,"{CH2CO}-AV[NMeF]V[Trp(5-Cl)]NYYIIRRFYC-NH2 (thioether N-15; not fully specified (residue 14); also: linker PEG4c, place not given here) [894_0250]",
< 1 nM,{CH2CO}-AV[NMeF]V[Trp(5-Cl)]NY[Phe(4-OMe)]IIRRYYC-NH2 (thioether N-15; not fully specified (residue 14); also: linker PEG4c) [894_0289],
,{CH2CO}-AV[NMeF]VWNY[Phe(4-OMe)]II[NMeR]RFYC-NH2 (thioether N-15; not fully specified (residue 14); also: linker PEG4c) [894_0285],KD [2]: 1 to 100 nM
< 1 nM,"{CH2CO}-AV[NMePhe(4-F)]V[Trp(5-Cl)]NY[Phe(4-OMe)]IIRRFYC-NH2 (thioether N-15; not fully specified (residue 14); also: linker PEG4c, place not given here) [894_0255]",
,{CH2CO}-AV[NMePhe(3-Cl)]V[Trp(1-CH2CO)]NY[F4aao]IIRRFYC-NH2 (thioether N-15; not fully specified (residue 14); also: linker PEG4c) [894_0295],KD [2]: 1 to 100 nM
,"Ac-AV[NMePhe(3-Cl)]VWNY[3Pal]IIQQ[4Pal][NMeY]C (thioether (positions not given here); not fully specified (C-terminus, bridges)) [894_0327]",KD [2]: 1 to 100 nM
,{CH2CO}-AV[NMePhe(3-Cl)]V[Trp(1-CH2CO)]NY[F4aao]IIRRF[NMeY]CG[PEG8][Lys(N3)]-NH2 (thioether N-15; SMILES CC[C@H](C)[C@@H]1NC(=O)[C@H](Cc2ccc(OCC(=O)O)cc2)NC(=O)[C@H](Cc2ccc(O)cc2)NC(=O)[C@H](CC(N)=O)NC(=O)[C@H](Cc2cn(CC(=O)O)c3ccccc23)NC(=O)[C@H](C(C)C)NC(=O)[C@H](Cc2cccc(Cl)c2)N(C)C(=O)[C@H](C(C)C)NC(=O)[C@H](C)NC(=O)CSC[C@@H](C(=O)NCC(=O)NCCOCCOCCOCCOCCOCCOCCOCCOCCC(=O)N[C@@H](CCCCN=[N+]=[N-])C(N)=O)NC(=O)[C@H](Cc2ccc(O)cc2)N(C)C(=O)[C@H](Cc2ccccc2)NC(=O)[C@H](CCCNC(=N)N)NC(=O)[C@H](CCCNC(=N)N)NC(=O)[C@H]([C@@H](C)CC)NC1=O) [894_3182],KD [2]: 1 to 100 nM
